Measurements: patent publication US20250121076A1, “POLYPEPTIDE DRUG CONJUGATE HAVING NOVEL STRUCTURE AND APPLICATION THEREOF” (MEDSHINE DISCOVERY INC., priority 2021, published 2025)
Where a name gives a salt, the structure may show the parent alone. Starred links: 1 amine or outer side, 2 acyl side, 3 side chain; linkers in the order of their positions; H or OH if unused. Positions of bridges follow the written chain, without caps; N, C: chain ends. Non-standard residues stand in square brackets, D forms with d. Residues, ends and D or L forms follow the SMILES beside them. Chains are numbered I, II in the order given. *: point of attachment. TATA = O=C(CC[*:1])N1CN(C(=O)CC[*:2])CN(C(=O)CC[*:3])C1; Dolaproine = CO[C@@H]([C@@H]1CCCN1)[C@@H](C)C(=O)O; Dil = CC[C@H](C)[C@H](NC)[C@@H](CC(=O)O)OC; X2 = O=C(CCCC(=O)[*:2])NCCC(=O)[*:1]; PABC = O=C(OCc1ccc(N[*:1])cc1)[*:2]; X1 = C[C@@H](N*)[C@@H](O)c1ccccc1; Hyp = O=C(O)[C@@H]1C[C@@H](O)CN1; hArg = N=C(N)NCCCC[C@H](N)C(=O)O; Cit = NC(=O)NCCC[C@H](N)C(=O)O; Pen = CC(C)(S)[C@H](N)C(=O)O; NMeV = CN[C@H](C(=O)O)C(C)C; Sar = CNCC(=O)O

Legend:
[1] = Pharmacokinetic analysis in rat plasma at different doses (6.2); format: in vivo, SD rats; settings: rat, in vivo, male SD rats
Description: (§1) Experimental purpose: To test the pharmacokinetics of the compounds of the present invention in SD rats.
(§2) 6.2 The pharmacokinetic characteristics of the compound after intravenous injection and oral administration were tested in rats according to a standard protocol. The compound to be tested was formulated into a clear solution using 50 mM acetate buffer (pH=5) in 10% sucrose as a vehicle. Three male SD rats were given a single intravenous injection of 2.5 mg/kg, 3.75 mg/kg, or 5 mg/kg of the compound to be tested. Whole blood was collected at time points of 0.083, 0.25, 0.5, 1, 4, and 24 hours after administration to get plasma. The concentration of the compound to be tested and the concentration of its potential metabolite MMAE were analyzed by the LC-MS/MS method, and the pharmacokinetic parameters were calculated.

[2] = Pharmacokinetic analysis in rat plasma (6.1, 2 mg/kg); format: in vivo, SD rats; settings: rat, in vivo, SD rats, single IV 2 mg/kg, plasma
Description: as §1
as §2, with “6.1” for “6.2”, “Two” for “Three male”, “2” for “2.5 mg/kg, 3.75 mg/kg, or 5”, “1, 2,” for “1,”, “4, 8,” for “4,”, “calculated by Phoenix WinNonlin software.” for “calculated.”

[3] = system: NCI-H1975; assay: In vitro anti-proliferative activity, CellTiter-Glo; format: cell-based, Human; settings: NCI-H1975, 72 h
Description: (§3) To investigate the effect of the compounds of the present invention on inhibiting cell proliferation by detecting the effect of the compounds on cell activity in vitro in tumor cell lines NCI-H1975 and SK-OV-3.
(§4) The tumor cell lines were cultured in a 37° C., no CO2 incubator and a 37° C., 5% CO2 incubator according to the culture conditions shown in Table 15, respectively. The cells were periodically passaged, and cells in a logarithmic growth phase were taken for plating.
(§5) Cells in a logarithmic growth phase were harvested and centrifuged at 1000 rpm for 3 min at room temperature. The supernatant was discarded, and the cells were resuspended in 5 mL of a culture medium. Then, 20 ul of the cell suspension was pipetted and mixed with trypan blue at 1:1 for staining for 3 min to detect cell viability and to count viable cells. The cell density was adjusted to 4000 NCI-H1975/well or 5000 SK-OV-3/well. Then, 90 μL of the cell suspension was added to each culture plate well, and a cell-free culture medium was added to blank control wells. […]
(§6) The detection was performed according to the instructions of the Promega CellTiter-Glo Luminescent Cell Viability Assay kit (Promega-G7573). The luminescence signal was detected on the En Vision® Multi-mode Plate Reader (EnVision 2104-10). […]

[4] = system: SK-OV-3; assay: as above; format: cell-based, Human; settings: SK-OV-3, 72 h
Description: as §3, §4, §5, §6

[5] = In vivo pharmacokinetic analysis in mice; design: species or system CD-1 mice; settings: mouse, in vivo, CD-1 mice, single IV 2 mg/kg, plasma
Description: To test the pharmacokinetics of the compounds of the present invention in CD-1 mice
The pharmacokinetic characteristics of the compound after intravenous injection and oral administration were tested in CD-1 mice according to a standard protocol. The compound of the present invention was formulated into a clear solution using 50 mM acetate buffer (pH=5) in 10% sucrose as a vehicle. Two mice were given a single intravenous injection of 2 mg/kg of the compound to be tested. Whole blood was collected at time points of 0.083, 0.25, 0.5, 1, 2, 4, 8, and 24 hours after administration to get plasma. The concentration of the compound to be tested and the concentration of its potential metabolite MMAE were analyzed by the LC-MS/MS method, and the pharmacokinetic parameters, such as maximal concentration (Cmax), clearance (Cl), half-life (T1/2), […] (Vdss), and area under the concentration-time curve (AUC0-last), were calculated by Phoenix WinNonlin software.

SMILES: CC[C@H](C)[C@@H]([C@@H](CC(=O)N1CCC[C@H]1[C@H](OC)[C@@H](C)C(=O)N[C@H](C)[C@@H](O)c1ccccc1)OC)N(C)C(=O)[C@@H](NC(=O)[C@H](C(C)C)N(C)C(=O)OCc1ccc(NC(=O)[C@H](CCCNC(N)=O)NC(=O)[C@@H](NC(=O)CCCC(=O)NCCC(=O)N(C)CC(=O)N(C)CC(=O)N(C)CC(=O)N(C)CC(=O)N(C)CC(=O)N(C)CC(=O)N(C)CC(=O)N(C)CC(=O)N(C)CC(=O)N(C)CC(=O)N[C@H]2CCCCNC(=O)C[C@@H](C(=O)N[C@H]3CSCCC(=O)N4CN5CN(C4)C(=O)CCSC(C)(C)[C@@H](C(N)=O)NC(=O)[C@H](CCCCNC(=N)N)NC(=O)[C@H](Cc4c[nH]c6ccccc46)NC(=O)[C@@H](CC(=O)O)NC(=O)[C@@H]4CCCN4C(=O)[C@H](Cc4c[nH]cn4)NC(=O)[C@H](CC(C)C)NC(=O)[C@H](CSCCC5=O)NC(=O)[C@H](CC(C)C)NC(=O)[C@@H]4CCCN4C(=O)[C@H](CC(N)=O)NC(=O)[C@H](C(C)C)NC(=O)[C@H](CC(C)C)NC(=O)[C@@H]4C[C@@H](O)CN4C3=O)NC(=O)[C@H](CCCCNC(=N)N)NC2=O)C(C)C)cc1)C(C)C [Acetate salt of PDC_8] (I: [Sar][Sar][Sar][Sar][Sar][Sar][Sar][Sar][Sar][Sar]K[hArg]DC[Hyp]LVNPLCLHP[dD]W[hArg][Pen]-NH2 / II: V[Cit][PABC][NMeV]V[Dil][Dolaproine]-X1; lactam I:11-I:13; linker I:14-I:21-I:28 via TATA; linker I:N-II:N via X2)
- AUC(0-t) ([1]; single IV 2.5 mg/kg): 0.765 µM·h
- Cmax ([1]; single IV 2.5 mg/kg): 1960 nM
- AUC(0-t) ([1]; single IV 3.75 mg/kg): 3.09 µM·h
- Cmax ([1]; single IV 3.75 mg/kg): 2750 nM
- AUC(0-t) ([1]; single IV 5 mg/kg): 5.65 µM·h
- Cmax ([1]; single IV 5 mg/kg): 4590 nM
- AUC(0-t) [2]: 0.518 µM·h
- C0 [2]: 1670 nM
- clearance [2]: 14.4 mL/min/kg
- half-life [2]: 17.4 min
- Vd ([2]; read-out: Vdss): 0.28 L/kg
- IC50 [3]: 79 nM
- IC50 [4]: 586 nM
- AUC(0-t) [5]: 0.56 µM·h
- C0 [5]: 2640 nM
- clearance [5]: 13 mL/min/kg
- half-life [5]: 12 min
- Vd ([5]; read-out: Vdss): 0.19 L/kg
